# Source: patent publication US20060084113A1 (published 2006)
# B1: MA-ITI-E7 phage (ITI-DI-III fusion with the EpiNE-7 changes around the P1 position) (designed binder)
# chain: KEDSCQLGYSAGPCVAMFPRYFYNGTSMACETFQYGGCMGNGNNFVTEKECLQTCRGAAETVESCLAKPHTENSFTNVWKDDKTLDRYANYEGCLWNATGVVVCTGDETQCYGTWVPIGLAIPENEGGGSEGGGSEGGGSEGGGTKPPEYGDTPIPGYTYINPLDGTYPPGTEQNPANPNPSLEESQPLNTFMFQNNRFRNRQGALTVYTGTVTQGTDPVKTYYQYTPVSSKAMYDAYWNGKFRDCAFHSGFNEDPFVCEYQGQSSDLPQPPVNAGGGSGGGSGGGSEGGGSEGGGSEGGGSEGGGSGGGSGSGDFDYEKMANANKGAMTENADENALQSDAKGKLDSVATDYGAAIDGFIGDVSGLANGNGATGDFAGSNSQMAQVGDGDNSPLMNNFRQYLPSLPQSVECRPFVFSAGKPYEFSIDCDKINLFRGVFAFLLYVATFMYVFSTFANILRNKES
# Experiments:
# [1] = biological target: trypsin (immobilized active trypsin, Pierce; or free trypsin) (UniProt P00760); test: phage on trypsin beads, pH 2.2 elution
# Chain of trypsin (immobilized active trypsin, Pierce; or free trypsin) (P00760 24-246): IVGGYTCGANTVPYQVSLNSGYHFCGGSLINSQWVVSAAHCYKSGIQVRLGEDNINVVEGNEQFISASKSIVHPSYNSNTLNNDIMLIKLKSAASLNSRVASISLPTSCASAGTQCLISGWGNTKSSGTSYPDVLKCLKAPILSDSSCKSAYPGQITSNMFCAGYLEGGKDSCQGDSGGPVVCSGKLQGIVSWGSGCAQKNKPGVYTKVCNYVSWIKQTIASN
# [2] = biological target: anhydro-trypsin (agarose-immobilized, Pierce) (UniProt P00760); test: phage titer after incubation with agarose beads
# [3] = biological target: streptavidin (agarose-immobilized, Sigma) (UniProt P22629); test: phage titer after incubation with agarose beads
# Chain of streptavidin (agarose-immobilized, Sigma) (P22629 37-163 limits assumed): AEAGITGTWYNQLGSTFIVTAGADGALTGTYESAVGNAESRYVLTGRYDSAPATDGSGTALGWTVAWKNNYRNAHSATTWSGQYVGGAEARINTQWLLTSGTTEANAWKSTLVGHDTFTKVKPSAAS
# [4] = biological target: anhydro-trypsin (agarose-immobilized, Pierce) (UniProt P00760); test: phage on agarose beads, pH 2.2 elution, dot blot
# [5] = biological target: streptavidin (agarose-immobilized, Sigma) (UniProt P22629); test: phage on agarose beads, pH 2.2 elution, dot blot
# [6] = biological target: anhydro-trypsin (agarose-immobilized, Pierce) (UniProt P00760); test: phage on beads, elution, pfu
# [7] = biological target: trypsin (immobilized active trypsin, Pierce; or free trypsin) (UniProt P00760); test: phage on beads, elution, pfu
# [8] = biological target: human neutrophil elastase (HNE), immobilized on agarose beads (human) (UniProt P08246); test: phage on beads, acid elution, pfu
# [9] = biological target: trypsin (immobilized active trypsin, Pierce; or free trypsin) (UniProt P00760); test: phage on beads, acid elution, pfu
# Protein A-agarose beads = Protein A-agarose beads (UniProt P38507); test: phage titer after protein A-agarose
# [10] = biological target: normal rabbit serum / IgG purified from normal rabbit serum; test: phage titer after normal rabbit IgG
# [11] = biological target: anhydro-trypsin (agarose-immobilized, Pierce) (UniProt P00760); test: phage on beads, acid elution, pfu; experiment 1
# [12] = biological target: anhydro-trypsin (agarose-immobilized, Pierce) (UniProt P00760); test: phage on beads, acid elution, pfu; experiment 2
# [13] = biological target: normal rabbit serum / IgG purified from normal rabbit serum; test: phage titer after normal rabbit IgG and protein A-agarose
# [14] = biological target: T1, human neutrophil elastase (HNE), immobilized on agarose beads (human, UniProt P08246 30-247, limits assumed); test: phage on HNE beads, stepwise pH elution
# T1 construct: also called HNE beads; leukocyte elastase
# T1 sequence (looked up): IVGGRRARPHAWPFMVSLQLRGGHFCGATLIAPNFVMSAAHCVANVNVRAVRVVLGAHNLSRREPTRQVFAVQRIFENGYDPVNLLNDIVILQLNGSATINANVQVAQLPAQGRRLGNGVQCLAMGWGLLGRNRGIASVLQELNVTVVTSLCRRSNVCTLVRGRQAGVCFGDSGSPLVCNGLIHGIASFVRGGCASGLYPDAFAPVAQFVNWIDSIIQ
# [15] = biological target: T1, human neutrophil elastase (HNE), …; test: phage on HNE beads, abbreviated pH elution
molecule,measurement,setting,value
"MK phage (control, no displayed domain)","percent of input phage recovered, CBS pH 6.5",[1],0.00028%
same,"percent of input phage recovered, TBS pH 7.5",[1],0.00034%
same,"total pfu recovered in elution buffer, CBS pH 6.5",[1],1.35e+06 pfu
same,"total pfu recovered in elution buffer, TBS pH 7.5",[1],1.48e+06 pfu
same,"percent residual titer, 1 h, 2 µl IAT",[2],97%
same,"percent residual titer, 1 h, 5 µl IAT",[2],110%
same,"percent residual titer, 1 h, 10 µl IAT",[2],99%
same,"percent residual titer, 2 h, 2 µl IAT",[2],103%
same,"percent residual titer, 2 h, 5 µl IAT",[2],111%
same,"percent residual titer, 2 h, 10 µl IAT",[2],93%
same,"percent residual titer, 4 h, 2 µl IAT",[2],95%
same,"percent residual titer, 4 h, 5 µl IAT",[2],96%
same,"percent residual titer, 4 h, 10 µl IAT",[2],106%
same,"percent residual titer, 1 h, 5 µl IS",[3],106%
same,"percent residual titer, 2 h, 5 µl IS",[3],96%
same,"percent residual titer, 4 h, 5 µl IS",[3],98%
same,"percent of total phage recovered in elution buffer, 2 µl IAT",[4],< 1%
same,"percent of total phage recovered in elution buffer, 5 µl IAT",[4],< 1%
same,"percent of total phage recovered in elution buffer, 10 µl IAT",[4],< 1%
same,"percent of total phage recovered in elution buffer, 5 µl IS",[5],< 1%
"M13mp18 phage (wild type control, non-display phage)","eluted phage, % of input",[6],0.1 % of input
same,relative binding (to M13MP18),[6],1 fold
same,"eluted phage, % of input",[7],0.00023 % of input
same,relative binding (to M13MP18),[7],1 fold
same,"eluted phage, % of input",[8],0.0003 % of input
same,relative binding (to M13MP18),[8],1 fold
same,"eluted phage, % of input",[9],0.0005 % of input
same,relative binding (to M13MP18),[9],1 fold
same,"% of input pfu left, +Protein A",Protein A-agarose beads,72 % of input
same,"% of input pfu left, +NRS",[10],104 % of input
same,binding relative to M13MP18,[11],1 fold
same,"eluted phage, % of input",[11],0.2 % of input
same,binding relative to M13mp18,[12],1 fold
same,"eluted phage, % of input",[12],0.3 % of input
same,"% of input pfu left, +NRS +Protein A",[13],88 % of input
B1,fold lower total fraction eluted than EpiNE-7 phage,[14],~40 fold
same,fold lower total fraction eluted than EpiNE-7 phage,[15],40 fold
same,fold total fraction eluted against MA-ITI phage,[15],10 fold
